{
  "source": "the DeepSol protein solubility set",
  "data": [
    {"assay": "soluble on expression in E. coli; label from the status in PepcDB or PDB records", "values": [
      {"sequence": "MGSDKIHHHHHHMDIQKIAKFFEQLQNQDFAQWEDCFGKYDVEFSDDTAETFSQSCDHVVLFNNRLSKVMLLKTSDSILSIGGFQAHNRGKIEAKNRKKTLITIPTQLANDSFGTNRYSLQDNERKPSMGGIYPCKTIFDFSILLSNEIEKSLWGIGEYVGVYFSIIDYSSKYQENFEELIAWTVEQIDELSSLLKREDNRTILRRIASLLTVKCLIMRSNGNHEIGCSIDHSFARYLENKIQIPHGKAVYLGSLLTLLFYPEWEDKGLSLEKLFKIGHYVGITMSDIQYLKTQDFSTLVKEASLLRPKRSFSLDQIQEGEAMRIKKAKERANMITQIWDR", "soluble on expression in E. coli": "not soluble"},
      {"sequence": "MAHHHHHHMDAAIAQLRGCLEELLTYYPHVLRNVFEVEPSPLAAPKLSQQRPRDSSALADVIEDFLTELTRVLSIGLCDDDLGLWSVLELLECVPARMQAVAEATATAPETAALSKHGAQEPLQQLQRFRFASQLVYLVRSAFPATAPAVRARIFLRLTLNQGCLVAALELLREWCRSELLVFYAASDRGRRNGAAGSASSVALLVQSDTDSDMWNSFVAAIAPVAGPPVAEIAAGAPKVAAQPFHLQLLVPGLDDNSAASHAYYTQVENYACGRQPTRPSALACYRAALRQHSGSARKHDRSFRAASAGEGAASSPKLSPHPAEQLVLRVESLSVDHRTASGKEVAPVSRGNVSYDSSSTLSSRPMTLEPLSFVHRERLRGAKKRRRRHPSLSTAGAVAREEDAAGSPTPEGKTDNTTSDNTGSVAEAALHTSTVVTEAKECQGAPEAGEKAAPPYRDDYASRDDDPQVAPTVGETGAAQAASRALDTVSTDSPASAPHCLSPALRAAESPNRTLDSSSAPALSPELRNLQHRLWLCWLAVVTHAESEERIRITVRDVDANIS", "soluble on expression in E. coli": "not soluble"},
      {"sequence": "MNKRIVICADGTWNRPEKDLKVDFPTNVLRLARAISPIAADGKPQQVFYDWGVGSYYDEVIGGATGRGLHKNIMDGYRYIVQNYSPGDEIYLFGFSRGAYTVRCLCGLINNCGILKRPEARLIQQAFDHYKKSSAPFAPSGDKSVEFRHEHCHESREIKFVGVWDTVGAMGIPISFLGLFEDKDEFYDTKIGRNVRVARHALAIDEHRSDFEPTIWQLRDNMDMQQVWFAGAHSNVGGSYLPDKDGSLLSDNALAWMIAEAERFNLSLEPHLTAGLEHHHHHH", "soluble on expression in E. coli": "not soluble"},
      {"sequence": "MPTPAYIKIVGQTQGNITAGAFTADSVGNVFQQGHEDQILVQEIKHEVTTPTDPQSGQPSGQRVHKPFIFTSSLNKATPLMYQALATGEMLPTVEVSWYRTSSEGKQEHFFTTTLEDATIVSINTVLPHALDKDNENYTQLVEVSLAYRKITWAHDVANTEGSDDWRAPAA", "soluble on expression in E. coli": "not soluble"},
      {"sequence": "MTEFDNLTWLHGKPQGSGLLKANPEDFVVVEDLGFTPDGEGEHILLRILKNGCNTRFVADALAKFLKIHAREVSFAGQKDKHAVTEQWLCARVPGKEMPDFSAFQLEGCKVLEYARHKRKLRLGALKGNAFTLVLREISDRRDVETRLQAIRDGGVPNYFGAQRFGIGGSNLQGALRWAQSNAPVRDRNKRSFWLSAARSALFNQIVHQRLKKPDFNQVVDGDALQLAGRGSWFVATSEELPELQRRVDEKELMITASLPGSGEWGTQRAALAFEQDAIAQETVLQSLLLREKVEASRRAMLLYPQQLSWNWWDDVTVELRFWLPAGSFATSVVRELINTMGDYAHIAE", "soluble on expression in E. coli": "not soluble"},
      {"sequence": "MKVMIEKILLVQTLKRLPRMGWLIKGVQEPESIADHSFGVAFITLVLADVLEKRGKRIDVEKALKMAIVHDLAEAIITDIPLSAQEFVDKDKAEALVFKKVFPEFYELYREYQECSSPEAQLVRIADKLDMILQAYQYELSGNKNLDEFWEAIEEIKRLELSKYLEDILNSVGRLKA", "soluble on expression in E. coli": "soluble"},
      {"sequence": "MGSDKIHHHHHHMDIIDYLPQKMKAEAEAYMPCGLEEIRVRAGKQVQYMFAGGCRAGVYISHSDIEEMINYLSGYSFHAIAPQLAAGYFTVEGGHRVGIAGQMGCDGGKVTAVSEIASLNIRIAHQIRDVAMPLMPYIRDENSIYNTLVISRPGEGKTTFLRDCIRILSDGCDGKNALKVSVVDERSEIAACYLGVAQNDIGNSSDVLDNCPKSLGMRMLLRSMSPDVIAVDELGGEGDIEALNQLVSCGIRILGSVHGTNADDLRRKILPHAIERFVFIDHDEKGVRRYSIYDEAYRLLYSTVCGIGADKRLQQKKKGRYSDAV", "soluble on expression in E. coli": "not soluble"},
      {"sequence": "MGENSLWNVYKTVSFWKVMKNFIIIQIARYTPCLSVKNWLYRTFLRMKVGKKTSFALMVMPDIMFPEKITVGENSIIGYNTTLLAHEYLIREYRLGEIVIGNEVMIGANVTILPGVKIGDGATVSAGTLVHRDVPSGAFVGGNPMRIIYTLEHHHHHH", "soluble on expression in E. coli": "soluble"},
      {"sequence": "MSVPFLQQYRVGSYILKQKLAGNKRYPLVLMLEPLFQCNLACAGCGKIDYPEETLRRRLSVDECLHAVDECGAPVVSIAGGEPLIHKEMPQIVQGIIQRKKFVYLCTNALLLDTRMDDYQPSPYLTFSIHLDGNRERHDASVCREGVYDKVIPVIEQALQRGFRVTVNCTLFQSETAEEVAEFFDTATKLGVEGINVSPGFSYEHAPRQDVFLQRSVSKRLFRSIFEIGKKRKLPWKFNHSSLYLDFLAGNQSYKCTPWGNPTRNLFGWQRPCYLLVDEGYATSFRELMEETDWDRYGVGNNPKCANCMAHCGFEPTAINDTFAHPLKALRVSMRGPRVEGPMALDPLQTSSESQHNTDKRKPFPIPVTVEHKTVAPSSDHSSGPDN", "soluble on expression in E. coli": "not soluble"},
      {"sequence": "MSYEDWAGGIRCSECGREYTGIECPICRQADPTEREVVTEHGNGRGDQQPPENGTVSADSGVYDIDKIEHERHTDAEKVNPEVVDPSDYVTRAVSGVVFNKRHAWKAENRADEDNPPSLFVVTTADSEFNWIEIPLWDDAEGAMEDISIGDPIQAEGKLSKDNGVHNIHVHSQDSIDILTEPPEVKFDSMAIDQITSTTPKVDLEGTVERVGEIKDIQLDDEKVKLREIHVSDLNNDQIQVALWRTNAYEKVAPGDEIIIAGGLAKPHNEKVVVRVGWSGHIGYRSSLEHHHHHH", "soluble on expression in E. coli": "not soluble"},
      {"sequence": "MSLVMDYEGFKKEIFKLTGIDLGSYKEKQMKRRLDSLISKNNFSGYKTYIEALKTDKKLFNEFINYMTINVSEFYRNPEQWEKLKNIILPSLLEKNSNPKIWSAACSSGDEPYTLVMILNEFLPLNKIKIIATDIDAEILVKAKNGLYTEKSIANLPKKYVEKYFKVDGDVYAINQEVKNCVEFSKHNLLADPYPKNCDLIVCRNVLIYFTEEAKAEIYKKFNRALKTGGVLFVGSTEQIILYNLYNFKPIQTFFYQKEKEGHHHHHH", "soluble on expression in E. coli": "soluble"},
      {"sequence": "MAHHHHHHMKKSGKGRIKLKIQINTEEEENKENIIYENKNKKRKGSDISDDNDESIEKFKDLDNSYASDRKQKEDNDLEKKIISIISQLTKITCICEDKKNNINNLENEKICKKLIKQMYKYEKYLLQFSNYINENNNHNLDDITFPNGLIKAVDNYINPNVWIYQYLLLETKKQNDSYRNLIQNISTFDSTLKHKILNNDSNHLVNPVYPPLDENLLNSLNNTQQNYYKNVHIPKELSHYYLKSRNKTKED", "soluble on expression in E. coli": "not soluble"},
      {"sequence": "MPFAIGQRWLSESENALGLGVITALDQRTVTIYFPAADETRIYAMAQAPLSRIVFSKGETLSHQAGWQGEILDVQNMNGLLFYLVKNPQDEDVIVQERDISPIISFSQAKDRLFSAQIDRSTHFALRY", "soluble on expression in E. coli": "not soluble"},
      {"sequence": "SPMANSGPLCCTICHERLEDTHFVQCPSVPSHKFCFPCSRESIKAQGATGEVYCPSGEKCPLVGSNVPWAFMQGEIATIL", "soluble on expression in E. coli": "soluble"},
      {"sequence": "MAGDPMKLQKSNHTILLVLEKGEDIVECITTFADDQDLTFTSVSGIGACDDVVLKFFNLTTKQYEEKHITEPLELTSLLGNISRLDNGHFAHLHATFGTQSYETFSGHLAKAIVSATAEIILTVTDLDIQRSFKDAVGLNLLDPQLEHHHHHH", "soluble on expression in E. coli": "soluble"},
      {"sequence": "MSNPQDDKPIDQEQEAHVILKVKSQDGDEVLFKNKKSAPLKKLMYVYCDRRGLKLDAFAFIFNGARIGGLETPDELDMEDGDVIDACRAMSGGLRANQRQWSYMLFDHNGL", "soluble on expression in E. coli": "not soluble"},
      {"sequence": "EKDSVLRHNINKLGLTSIAVEPVAAWKLNDRHSFGAGIIAQHTSAELRKYADWGIKSKAEILTAKPPKPNGVAEAAKIQADGHADVKGSDWGFGYQLAWMWDINDRARVGVNYRSKVSHTLKGDAEWAADGAAAKAMWSTMLAANGYTANEKARVKIVTPESLSVHGMYKVSDKADLFGDVTWTRHSRFDKAELVFEKEKTVVKGKSDRTTITPNWRNTYKVGFGGSYQISEPLQLRAGIAFDKSPVRNADYRMNSLPDGNRIWFSAGMKYHIGKNHVVDAAYTHIHINDTSYRTAKASGNDVDSKGASSARFKNHADIIGLQYTYKFK", "soluble on expression in E. coli": "not soluble"},
      {"sequence": "SSWIPFKIGQPKKQIVSKTVERDFEREYGKLQQLEEQTKRLQKDMKKSTDADLAMSKSAVKISLDLLSNPLCEQDQDFLRMVTALDTAMKRMDAFNQEKVNQIQKTVIEPLKKFGSIFPSLNMAVKRREQALQDYGRLQAKVEKYEEKEKTGPVLAKLHQAREELRPVREDFEAKNKQLLDEMPRFYNSRLDYFQPSFESLIRAQVIYYSEMHKIFGDLTQQLDQPGHSDEHRERENETKLSELRALSIVADD", "soluble on expression in E. coli": "soluble"},
      {"sequence": "MPTPDFVLQLREKIGNDPLFLPGVTAVVIKDVPEGAPITAVPEVLLVKRADNGEWTPVTGIVDPGEQPHSAAVREVKEETGLDVTVEALLGVGAVGPVTYPNGDVSHYMDTAMRCEVVGDSTPRIGDDENTEVRWFSVMQMPPMKPRFRLVVGDAVAQLRRPEGFRPRMGYEKRERRR", "soluble on expression in E. coli": "not soluble"},
      {"sequence": "MAHHHHHHMLANEGRNASANNTTQPSFLILSSKNRHCITHNLTQIQTRCRPHFTEKRLKRGSWLKREEVWIEVQLCYRLGRRFTPTLFSQCAYRPSIRLGPTGTTGLAVPLLKIIYRQNSTIQKHKKEDDEKRCIKKKTIYGT", "soluble on expression in E. coli": "not soluble"},
      {"sequence": "MGSDKIHHHHHHMVEAQRVKEDEDAIRQALASLKNATGIPVTMYASVQSDSRLLINQWVGLRTPALQNLIIDNGVGVGGRVLKTRRPVGVSDYTRANVISHDLDPVIQDEGLHSIVAVPVIVQREVRGVLYVGVHSPVRLGDKVIEEVTMTARVLEQELAINSASRRSDNPRGGVAKQGRMMNGAEWEQIRSTHSKLRMLANRIEQEELRQELEELCDQMVAPVHVKQTTKLSARELDVLSCVALGHTNVEAAEEMGIGAETVKSYLRSVMRKLGAHTRYEAVNAARRIGALP", "soluble on expression in E. coli": "not soluble"},
      {"sequence": "SADEEDSLSQFDISKEETDKLVSEVIRFILFKFHQNSGTPIKREDLTQIVTKNYRQRNLATHVINEAKKKLSNVFGYDLKELQRARSSSTGQSRLPQSQSSVDSKSYVLVSELPLEVFKKHVVDETTSPVTGFTFVVLAIVQLAGGKIPEGMLLLGLLRRSFLWFRCNVLCKVVEWKSKVHYRDLFKNLKL", "soluble on expression in E. coli": "soluble"},
      {"sequence": "MRALIRYEDVPSKLWTLPKMTDFWGIGKRTEKRLNKLGISSIKELTNADPLLLKQKLGTIGLQHFFHANGIDESNVRLEHHHHHH", "soluble on expression in E. coli": "not soluble"},
      {"sequence": "MSLQSVKVNIPFWLTGSPNVGFEYTLTRQLTVNGEVLWMPYLFKKHEEVFRALQSSVELRYYVNPRNFYTNDSWDGFYIGPYAMYGNFNIGLLKHNDPLQSYRRKGWGVSGGISTGYKFAFNSRWGLDLNIGLGYAHLQYNKYYLGGEYVNFPLERKKTKRWIGPTKFGINLTYNIFREGHHHHHH", "soluble on expression in E. coli": "not soluble"},
      {"sequence": "MSLPPSQSDRDPFSVTMCHSTLASLPLVYACSGCSSVAQLANTFAVRLDRSGAAEMSCISGVGGGVPALTRVARSGRPILALDGCALSCVKACLASVDVVPDRHLVLNRLGATKRQHGVCTEAEEAETWDAVQQALAEVRGAMEGHHHHHH", "soluble on expression in E. coli": "soluble"}
    ]}
  ]
}
